Square brackets hold non-standard residues; d marks the D form. Peptide text beside a SMILES is read from it. * marks the point of attachment. Dolaproine = CO[C@@H]([C@@H]1CCCN1)[C@@H](C)C(=O)O; Dil = CC[C@H](C)[C@H](NC)[C@@H](CC(=O)O)OC; X1 = C[C@@H](N*)[C@@H](O)c1ccccc1; NMeV = CN[C@H](C(=O)O)C(C)C
T1: mTEM8-Fc (Mus musculus, UniProt Q9CZ52)
T1 construct: Fc
T1 sequence (Q9CZ52 31-319 limits assumed): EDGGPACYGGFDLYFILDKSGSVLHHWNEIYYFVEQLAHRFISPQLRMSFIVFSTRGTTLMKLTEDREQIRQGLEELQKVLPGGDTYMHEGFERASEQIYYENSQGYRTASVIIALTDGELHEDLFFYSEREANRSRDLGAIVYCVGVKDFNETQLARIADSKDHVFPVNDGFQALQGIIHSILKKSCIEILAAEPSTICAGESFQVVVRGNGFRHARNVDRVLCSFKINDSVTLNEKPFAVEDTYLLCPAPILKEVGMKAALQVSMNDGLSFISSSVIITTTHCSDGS

T2: hTEM8-AP (Homo sapiens, UniProt Q9H6X2)
T2 sequence (Q9H6X2 33-321 limits assumed): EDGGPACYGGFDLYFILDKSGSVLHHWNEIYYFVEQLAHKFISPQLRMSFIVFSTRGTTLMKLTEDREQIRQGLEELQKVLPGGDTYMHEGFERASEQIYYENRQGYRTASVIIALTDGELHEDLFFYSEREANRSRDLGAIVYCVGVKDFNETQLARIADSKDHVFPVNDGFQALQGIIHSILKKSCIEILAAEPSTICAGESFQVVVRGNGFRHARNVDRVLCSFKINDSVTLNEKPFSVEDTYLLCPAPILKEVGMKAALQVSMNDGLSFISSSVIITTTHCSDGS


How the values were obtained:
[1] = test system: OVCAR3 ovarian cancer model; test: M825 and M825-MMAE in OVCAR3 ovarian cancer model; format: in vivo, mice; conditions: 0.2 mg/kg, equivalent to maximum MMAE in the 10 mg/kg ADC group
Experimental: Treatment initiated when tumor volume reached approximately 120 mm^3. M825 was given i.v. at 10 mg/kg and M825-MMAE was given i.v. at 1, 3, or 10 mg/kg, 2 times per week for 3.5 weeks. […] The 10 mg/kg ADC group was redosed on Day 56, 2 times per week.

[2] = target: T1, mTEM8-Fc; test: Biocore affinity measurement of anti-TEM8 Fabs, mTEM8-Fc; format: binding
[3] = target: T2, hTEM8-AP; test: Biocore affinity measurement of anti-TEM8 Fabs, hTEM8-AP; format: binding
[4] = Pharmacokinetics of TEM8 antibodies in mouse, single dose; format: in vivo
Excerpt: (§1) Tables 8 and 9 show pharmacokinetic properties of TEM8 antibodies according to the present invention in mouse for single dose (Table 8) and multiple dose (Table 9) treatments.

[5] = Pharmacokinetics of TEM8 antibodies in mouse, multiple dose; format: in vivo
Excerpt: as §1

[6] = test system: 3T3 fibroblasts; test: Contractility of 3T3 fibroblasts in the presence of TGFb-1; format: cell-based; conditions: in vitro
Experimental: 3T3 cells were cultured and contractility in the presence of TGFb-1 was measured in control or M825 exposed cells. […] Contractile forces are thought to contribute to increased cancer cell invasion.

Molecule	AUCI ([4]; 5 mg/kg)	AUCT ([4]; 5 mg/kg)	CLF ([4]; 5 mg/kg)	CMAX ([4]; 5 mg/kg)	HALF ([4]; 5 mg/kg)	KEL ([4]; 5 mg/kg)	TMAX ([4]; 5 mg/kg)	VZF ([4]; 5 mg/kg)	AUCT ([4]; 15 mg/kg)	CMAX ([4]; 15 mg/kg)	TMAX ([4]; 15 mg/kg)	AUCI ([5]; 5 mg/kg)	AUCT ([5]; 5 mg/kg)	CLF ([5]; 5 mg/kg)	CMAX ([5]; 5 mg/kg)	HALF ([5]; 5 mg/kg)	KEL ([5]; 5 mg/kg)	TMAX ([5]; 5 mg/kg)	VZF ([5]; 5 mg/kg)	AUCI ([5]; 15 mg/kg)	other results
CC[C@H](C)[C@@H]([C@@H](CC(=O)N1CCC[C@H]1[C@H](OC)[C@@H](C)C(=O)N[C@H](C)[C@@H](O)c1ccccc1)OC)N(C)C(=O)[C@@H](NC(=O)[C@@H](NC)C(C)C)C(C)C [MMAE, monomethylauristatin (MMAE), reference compound] (H-[NMeV]V[Dil][Dolaproine]-X1)	–	–	–	–	–	–	–	–	–	–	–	–	–	–	–	–	–	–	–	–	effect on tumor growth [1]: No effect
M825: TEM8 monoclonal antibody (hIgG1), VH SEQ ID NO:1 and VL SEQ ID NO:2	1310.519 µg·h/mL	1310.222 µg·h/mL	3.82 mL/h/kg	46800 ng/mL	6.03 h	0.1149 h⁻¹	3 h	0.03319 L/kg	8991.767 µg·h/mL	144000 ng/mL	3 h	1408.345 µg·h/mL	1408.201 µg·h/mL	3.55 mL/h/kg	54300 ng/mL	9.10 h	0.0762 h⁻¹	3 h	0.04661 L/kg	21649.446 µg·h/mL	ka [2]: 1.7e+06 M⁻¹ s⁻¹; kd [2]: 8.942e-05 s⁻¹; ka [3]: 3.05e+06 M⁻¹ s⁻¹; kd [3]: 0.0001802 s⁻¹; AUCI ([4]; 15 mg/kg): 9239.202 µg·h/mL; CLF ([4]; 15 mg/kg): 1.62 mL/h/kg; HALF ([4]; 15 mg/kg): 23.77 h; KEL ([4]; 15 mg/kg): 0.0292 h⁻¹; VZF ([4]; 15 mg/kg): 0.05566 L/kg; AUCT ([5]; 15 mg/kg): 21648.879 µg·h/mL; CLF ([5]; 15 mg/kg): 0.69 mL/h/kg; CMAX ([5]; 15 mg/kg): 314000 ng/mL; HALF ([5]; 15 mg/kg): 17.05 h; KEL ([5]; 15 mg/kg): 0.0406 h⁻¹; TMAX ([5]; 15 mg/kg): 3 h; VZF ([5]; 15 mg/kg): 0.01705 L/kg; contractility of activated 3T3 fibroblasts [6]: block the contractility
M863: TEM8 monoclonal antibody (hIgG1), VH SEQ ID NO:7 and VL SEQ ID NO:8 (antibody, V domains shown, TEM863 mAb VH; TEM863 mAb VL) VH: EVQLVETGAEVKKPGASVKVSCKASGYTFTGYYMHWVRQAPGQGLEWMGWINPTSGSTNYAQKFQGRVTMTRDTSISTAYMELSGLRSDDTAVYYCVRDPGSPKWLAFDPWGQGTLVTVSS VL: DIQLTQSPSSLSASVGDRVTITCRASRAISRYLNWYQQKPGKAPKLLIYAASSLQSGVSSRFSGSGSGTEFTLTISSLQPEDFATYFCQQTYSPPITFGQGTRLEIKR	1330.847 µg·h/mL	1330.742 µg·h/mL	3.76 mL/h/kg	51300 ng/mL	8.59 h	0.0807 h⁻¹	3 h	0.04656 L/kg	10721.535 µg·h/mL	355000 ng/mL	3 h	1425.735 µg·h/mL	1425.565 µg·h/mL	3.51 mL/h/kg	58600 ng/mL	14.29 h	0.0485 h⁻¹	3 h	0.07228 L/kg	7272.672 µg·h/mL	AUCT ([5]; 15 mg/kg): 7271.7 µg·h/mL; CLF ([5]; 15 mg/kg): 2.06 mL/h/kg; CMAX ([5]; 15 mg/kg): 147000 ng/mL; HALF ([5]; 15 mg/kg): 12.64 h; KEL ([5]; 15 mg/kg): 0.0549 h⁻¹; TMAX ([5]; 15 mg/kg): 3 h; VZF ([5]; 15 mg/kg): 0.0376 L/kg

From patent publication US10758526B2, “Combination therapies using agents that target tumor-associated stroma or tumor cells and other pathways” (BIOMED VALLEY DISCOVERIES, INC., priority 2014, dated 2020)
